{"source": "paper PMC6429771", "about": "“Identification of new glutamate decarboxylases from Streptomyces for efficient production of γ-aminobutyric acid in engineered Escherichia coli” (Journal of Biological Engineering, 2019)", "proteins": {"B1": {"name": "StGAD (Streptomyces toxytricini) (protein)", "chain": "MALHKTKDVTGGDTGTDVFTTALSGRVLPKYRMPEEHSPSEAVYALLRNELLLDGNAAQNLATFCTTWSDDGVHRLMNECLDKNMVDKDEYPQTAEIEARCVNILAHLWHAPAEDGPATGCSTTGSSEAAMLGGLALKWRWRARRRAQGLPADRPNLVCGPVQVCWEKFARYFDVELRQIPLEEDATGLRPHQLAEYVDENTIGVVAILGVTYTCDYEPVADIAAALDAIQQEHGWDVPIHVDGASGGLVAPFLHPDVVWDFALPRVASINTSGHKYGLAPLGVGWVVWRTADLLPPELVFDVDYLGGDMPTFALNFSRPGGEAIAQYYLFLRLGRSGYRSVHQSCADTARFLAGEIAAMGPFTLLYDGQGALPAVSYRLTDPAAAGFTLYDLSDRLRMRGWQVPAYPLPARRDDTVIQRVLIRHGVTLDQIALLAEDMRRALDHLRAAPPTQPPTAPRSGFHH", "notes": "full-length ORF (1395 bp, about 464 residues, 53 kDa) in pET28a (NdeI/HindIII), His6-tagged, expressed in E. coli BL21(DE3), Ni-NTA purified"}, "B2": {"name": "ScGAD (Streptomyces chromofuscus) (protein)", "chain": "MPLHQGADRAADIPEEDRAELRRLSLNPFYGEADPVSEMTSAPPTQRLPEGPTPPHTAYQLVHDELMLDGNSRLNLATFVTTWMEPQAGVLMAECQDKNMIDKDEYPRTAELERRCVAMLADLWNAPDPATAVGCSTTGSSEACMLAGLALKRRWAKRNAARYPATARPNLVMGVNVQVCWEKFCTFWEVEARLVPMEGDRFHLDPQAAADLCDEDTIGVVAVLGSTFDGSYEPVAELCAVLDALQERTGLDVPVHVDGASGAMIAPFLDEDLVWDFRLPRVSSINTSGHKYGLVYPGVGWALWRSPAELPEELVFRVNYLGGDMPTFALNFSRPGAQVVAQYYTFLRLGRDGYRAVQQTARDIATTLSARIERLGGFRLLTRGDQLPVFAFTTASDVTNFDVFDVSRRLREHGWLVPAYTFPAHREDLSVLRVVCRNGFSADLAAMLVADLKRVLPELRAQERPMDRDPSAATAFHH"}, "B3": {"name": "GadB (Escherichia coli K-12) (protein)", "chain": "MDKKQVTDLRSELLDSRFGAKSISTIAESKRFPLHEMRDDVAFQIINDELYLDGNARQNLATFCQTWDDENVHKLMDLSINKNWIDKEEYPQSAAIDLRCVNMVADLWHAPAPKNGQAVGTNTIGSSEACMLGGMAMKWRWRKRMEAAGKPTDKPNLVCGPVQICWHKFARYWDVELREIPMRPGQLFMDPKRMIEACDENTIGVVPTFGVTYTGNYEFPQPLHDALDKFQADTGIDIDMHIDAASGGFLAPFVAPDIVWDFRLPRVKSISASGHKFGLAPLGCGWVIWRDEEALPQELVFNVDYLGGQIGTFAINFSRPAGQVIAQYYEFLRLGREGYTKVQNASYQVAAYLADEIAKLGPYEFICTGRPDEGIPAVCFKLKDGEDPGYTLYDLSERLRLRGWQVPAFTLGGEATDIVVMRIMCRRGFEMDFAELLLEDYKASLKYLSDHPKLQGIAQQNSFKHT"}}, "assay_in_all_cases": "GABA formation by Berthelot reaction, A630, Lineweaver-Burk plot", "key": {"[1]": {"substrate": "N[C@@H](CCC(=O)O)C(=O)O", "format": "biochemical, Streptomyces toxytricini", "settings": "0.01 mM PLP, 200 mM Na2HPO4-citric acid buffer pH 5.2, 37 °C, 5-100 mM MSG", "from_the_text": "GABA formation by Berthelot reaction, A630, Lineweaver-Burk plot on StGAD"}, "[2]": {"substrate": "N[C@@H](CCC(=O)O)C(=O)O", "format": "biochemical, Streptomyces chromofuscus", "settings": "0.01 mM PLP, 200 mM Na2HPO4-citric acid buffer pH 4.2, 37 °C, 5-100 mM MSG", "from_the_text": "GABA formation by Berthelot reaction, A630, Lineweaver-Burk plot on ScGAD"}, "[3]": {"substrate": "N[C@@H](CCC(=O)O)C(=O)O", "format": "biochemical, Escherichia coli", "settings": "0.01 mM PLP, 200 mM Na2HPO4-citric acid buffer pH 4.0, 37 °C, 5-100 mM MSG", "from_the_text": "GABA formation by Berthelot reaction, A630, Lineweaver-Burk plot on GadB"}}}
{"protein": "B1", "values": [{"measurement": "Km", "setting": "[1]", "result": "7.67 ± 0.55", "unit": "mM"}, {"measurement": "Vmax", "setting": "[1]", "result": "0.226 ± 0.01", "unit": "µmol/min/mg"}, {"measurement": "kcat", "setting": "[1]", "result": "0.2 ± 0.02", "unit": "s⁻¹"}, {"measurement": "kcat/Km", "setting": "[1]", "result": "26 ± 3", "unit": "M⁻¹ s⁻¹"}]}
{"protein": "B2", "values": [{"measurement": "Km", "setting": "[2]", "result": "23.25 ± 2.07", "unit": "mM"}, {"measurement": "Vmax", "setting": "[2]", "result": "29.9 ± 2.16", "unit": "µmol/min/mg"}, {"measurement": "kcat", "setting": "[2]", "result": "28.1 ± 1.99", "unit": "s⁻¹"}, {"measurement": "kcat/Km", "setting": "[2]", "result": "1210 ± 90", "unit": "M⁻¹ s⁻¹"}]}
{"protein": "B3", "values": [{"measurement": "Km", "setting": "[3]", "result": "35.83 ± 2.40", "unit": "mM"}, {"measurement": "Vmax", "setting": "[3]", "result": "12.5 ± 0.72", "unit": "µmol/min/mg"}, {"measurement": "kcat", "setting": "[3]", "result": "11 ± 0.88", "unit": "s⁻¹"}, {"measurement": "kcat/Km", "setting": "[3]", "result": "310 ± 20", "unit": "M⁻¹ s⁻¹"}]}
